According to paper PMC11701102, “Structural insights into the interplay between microtubule polymerases, γ-tubulin complexes and their receptors” (Nature Communications, 2025):

B1: FLAG-Stu2 (C. albicans, full length) (natural protein, UniProt A0A1D8PTZ8 1-924, looked up)
chain: MSTEEEDYSNLSLEERFVHKVWKVRLQAYEELATNIENSRNESDPIFTSLSLDNLKKMILDSNVVAQETGYNTFNKFLIFGGNAANVSKLKNLGIIGSICEKGLLSSRKNTKEWSVESILLMIEISNDPNSIVEDILPYLTNRLPKLVTGCVSCLASIIENFGCKIISPKPIVPCLSKLFAHADKNVRNETTKLTIELYRWMGDALINALFSDLKPVQQKDLTAAFEKEKGTSPQQKRYTKKQREEIERREQEAAAAAAAAAATTAGNGGGNGDDVDDVEMSDVNGVTDDNEYDPLEFVDPVEVLNKFPSDFDSRISSSKWKDRKEVLEEIIPILEKSPKLITTDDYLPVLRIWAKCMKDANIQVVQLAANCIEFVIKGLGNEFSKYQSVVLTPVVERLKEKKPSVATALDNVLDALFNLSGFGNGVLDEAINGMKLKTPQNKIASANFVKRCLSTTKIPPKTSEIDAIMEVGIKLLSESQEPIRQAATEMIGTLMKITGPRELKPFLEKVDENRKNKINDYYEETAQVKTTMANASKSSSVASGSRNVSTAGGSFSSSTMKPPSKSSQDRKTSSGASSIIPAKRTASSPAKRDEVKNGRGMTARSLAKPNIPSLRPPTNVTQDSSGDGSSFSQQQQQQQVPSTSTGGGSGGAQSMISSVTNEEVNLLKQQIIKLQEEVQNYKNQQESHLKTIKLLEESNNNYREEIESVKRELSNEKRNATITTNHKDTHINNLKSELEKANYRIKDLEQEREINRLQQSNLAFERSNISSSNSRNSFYKPSPNKFAPSDISTGVKRLSIGGEENNHFGGGGGASPNFHNNTIHSTNTTTSTTATASGAGIGTGVGTGTGTGTGTGMGISRPTNSFRSSVNYGSTSSLTSSSRRESMDIDNGADWKRAAEVTLQLKARIERMKARTRSPLNIE
notes: Stu2, C. albicans, full-length Met1 to Glu924; FLAG tag followed by an HRV 3C cleavage site at the 5' end; also called wild-type FLAG-Stu2; source: Sf21 insect cells; not shown: FLAG, N-terminal, kept
B2: His-Spc72^1-599 (C. albicans), co-expressed in insect cells (domain or fragment, UniProt Q5AGV5 1-599, looked up)
chain: MSNLSINESNDNSNVSILSNKSGAQSSTNSSPNLIVFKQPEDLSIQLQQQQQGTQEDTPEEEEEEEEEMEQITQLEVQQENQPDTLSSSPFISRPNSPLDDIIRPQGTSSPSLTIRDSYSSQVDINISNLHKSLNEMRLSTDPVDNNNNNNKVNKNNPTNSDISNDDIITIDNLTPSRIQPKNISPWRQFRPTLRGSPESTPRSLFQNKPNLKFNNGLSPTNGSRDMVTNNIATTTKSREEELNKRIVNYKIQLKLMKNFLQELIDRNNLDPHEFHTLLRRNNNNIMNNENNPLSTSLSQTSTLEIQHQNLQIELDEALELNKQLYNKIETANKEISDKDLQISNYESRINLINYSVDELIYILINEYDKNNYSHGGSNTTSPGKETLQQSISAQLEVKLNVLKLELMTRLDQSHQYNNKPHDLFTPPYTSSEYGVSTNNVANKNDLEGYIHIIEDLIKTVDELELTCENYKANKNELQNQLVEQINESIRIKNNFQIMSNKFNQLRQSLSEKENDKNLDEFSKNNHQQQQQQQIQQLEQKLIEYEKCITILQDELDQYKQPSDTTNTTNNNNNNNNNNNRSSYSSYNNHRNSSLNELN
notes: Only the CM1 motif is resolved in the cryo-EM map, as a parallel dimeric coiled coil; source: Sf21 insect cells, MultiBac co-expression with γ-TuSC components and FLAG-Stu2 or His-GFP-Mzt1

Experiments:
[1] = biological target: the molecule itself; experiment: SEC-MALS + other: mass photometry; FLAG-Stu2 (10 µM) and His-Spc72^291-599 (60 µM) alone or mixed 1:1 (vol), Superdex 200 Increase 5/150, 50 mM Tris-HCl pH 7.5, 150 mM NaCl, room temperature; mass photometry below 40 nM
[2] = biological target: B2; experiment: SEC; FLAG-purified γ-TuSC/His-Spc72^1-599/FLAG-Stu2 on Superose 6 Increase 10/300 in HB100 buffer (40 mM K-HEPES pH 7.4, 100 mM KCl); fractions by SDS-PAGE, Western blot and gel densitometry; ring-like oligomers also seen by negative stain EM; conditions: both partners purified
[3] = biological target: the molecule itself; experiment: cryo-EM structure; γ-TuSC/Spc72^1-599/FLAG-Stu2 complex purified via FLAG-Stu2; single particle analysis, γ-TuSC unit within oligomers at 3.6 Å, 14-spoked ring at 8.2 Å
[4] = biological target: T1, γ-tubulin small complex (γ-TuSC) from C. albicans: His-Spc97, His-Spc98, γ-tubulin (Tub4) (C. albicans, UniProt Q59PZ2 1-871; A0A1D8PS42 1-785; O93807 1-502); experiment: SEC; FLAG-purified γ-TuSC/His-Spc72^1-599/FLAG-Stu2 on Superose 6 Increase 10/300 in HB100 buffer (40 mM K-HEPES pH 7.4, 100 mM KCl); fractions by SDS-PAGE, Western blot and gel densitometry; ring-like oligomers also seen by negative stain EM; conditions: both partners purified
T1 construct: Spc97 (homologue of human GCP2), C. albicans; Spc98 (homologue of human GCP3), C. albicans; γ-tubulin (Tub4), C. albicans; For MST the purified γ-TuSC was labelled with an amine-reactive dye (GREEN-NHS kit); also called γ-TuSC unit; γ-TuRC (as ring of seven γ-TuSCs); source: Sf21 insect cells (baculovirus); copies: 1 + 1 + 2

Row | Binder | stoichiometry N [1] | stoichiometry N [2] | stoichiometry N [3] | stoichiometry N [4]
1 | B1 | 2 | < 2 Stu2 dimers per Spc72 dimer |  | 
2 | B2 |  |  | 2 | ~2 Spc72^1-599 per γ-TuSC (Spc97:Spc98:γ-tubulin:Spc72^1-599)
